The values below come from paper PMC6804660, “Melatonin enhances salt tolerance by promoting MYB108A-mediated ethylene biosynthesis in grapevines”.

In data set [1] the target is T1, MYB108A (VviMYB108A) (UniProt C3W4Q3 1-306).
T1 sequence: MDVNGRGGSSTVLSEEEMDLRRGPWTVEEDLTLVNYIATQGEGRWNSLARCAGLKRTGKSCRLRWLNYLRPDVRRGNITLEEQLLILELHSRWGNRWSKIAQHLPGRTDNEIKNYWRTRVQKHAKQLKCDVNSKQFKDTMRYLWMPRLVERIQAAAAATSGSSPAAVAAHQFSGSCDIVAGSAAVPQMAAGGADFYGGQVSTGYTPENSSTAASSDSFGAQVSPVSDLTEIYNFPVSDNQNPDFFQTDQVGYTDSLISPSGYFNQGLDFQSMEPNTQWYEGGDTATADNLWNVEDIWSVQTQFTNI
As to the kind of experiment: competition; increasing unlabeled competitor vs biotin MBS probe (EMSA); EMSA per Thermo Fisher EMSA Kit manual; buffer, salt, pH and temperature not stated. Conditions: protein: recombinant; tags: His.

In data set [2] the target is T1, MYB108A (VviMYB108A). The data set can be described thus: EMSA; EMSA per Thermo Fisher EMSA Kit manual; buffer, salt, pH and temperature not stated. To be noted: protein: recombinant; tags: His; label: biotin. Background: A gel shift assay detects complexes by their altered migration in electrophoresis.
The target of data set [3] is T1, MYB108A (VviMYB108A). The data set can be described thus: competition; unlabeled mutant competitor vs biotin MBS probe (EMSA); EMSA per Thermo Fisher EMSA Kit manual; buffer, salt, pH and temperature not stated. Conditions: protein: recombinant; tags: His.

B1: unlabeled MBS competitor (dsDNA)
DNA 1: CATGTCCCTGTGAACCTAACGTAAGGCA
DNA 2: TGCCTTACGTTAGGTTCACAGGGACATG
Consider B1, for which the binding result with MYB108A (VviMYB108A) [1] was “binds”.

B2: ACS1 promoter MBS probe (dsDNA)
DNA 1: CATGTCCCTGTGAACCTAACGTAAGGCA
DNA 2: TGCCTTACGTTAGGTTCACAGGGACATG
B2: the binding result in the data set with MYB108A (VviMYB108A) [2] is “binds”.

B3: mutant MBS competitor (mMBS) (dsDNA)
DNA 1: CATGTCCCTGTGTACATATCGTAAGGCA
DNA 2: TGCCTTACGATATGTACACAGGGACATG
On to B3, for which the binding result with MYB108A (VviMYB108A) [3] is given as “no binding”.
